In article PMC9352346 (2022) one finds percent of parent and ratio to parent data, which are given here for ten variants.

The labels stand for the following.
B1: Arl15-AL-Myc [human] / GST-Smad4 [not stated] (parent complex)
chain 1: MSDLRITEAFLYMDYLCFRALCCKGPPPARPEYDLVCIGLTGSGKTSLLSKLCSESPDNVVSTTGFSIKAVPFQNAILNVKELGGLDNIRKYWSRYYQGSQGVIFVLDSASSEDDLEAARNELHSALQHPQLCTLPFLILANHQDKPAARSVQEIKKYFELEPLARGKRWILQPCSLDDMDALKDSFSQLINLLEEKDHEAVRM
chain 2: MDNMSITNTPTSNDACLSIVHSLMCHRQGGESETFAKRAIESLVKKLKEKKDELDSLITAITTNGAHPSKCVTIQRTLDGRLQVAGRKGFPHVIYARLWRWPDLHKNELKHVKYCQYAFDLKCDSVCVNPYHYERVVSPGIDLSGLTLQSNAPSSMMVKDEYVHDFEGQPSLSTEGHSIQTIQHPPSNRASTETYSTPALLAPSESNATSTANFPNIPVASTSQPASILGGSHSEGLLQIASGPQPGQQQNGFTGQPATYHHNSTTTWTGSRTAPYTPNLPHHQNGHLQHHPPMPPHPGHYWPVHNELAFQPPISNHPAPEYWCSIAYFEMDVQVGETFKVPSSCPIVTVDGYVDPSGGDRFCLGQLSNVHRTEAIERARLHIGKGVQLECKGEGDVWVRCLSDHAVFVQSYYLDREAGRAPGDAVHKIYPSAYIKVFDLRQCHRQMQQQAATAQAAAAAQAAAVAGNIPGPGSVGGIAPAISLSAAAGIGVDDLRRLCILRMSFVKGWGPDYPRQSIKETPCWIEIHLHRALQLLDEVLHTMPIADPQPLD
B2: GFP-Smad4-WT [not stated] / GST-Arl15-AL [human] (parent complex)
chain 1: B1 chain 2
chain 2: B1 chain 1

In the first assay the parent is B1. Briefly: GST pull-down, immunoblot band quantification; HeLa cell lysates; bead-immobilized GST-Smad4; parent: 100.
Consider chain 1 R150H, for which the percent of parent was 87.
Consider chain 1 D58N, for which the percent of parent amounted to 93.

The variants in a further assay derive from B2. Briefly: GST pull-down, immunoblot band quantification; HEK293T cell lysates; bead-immobilized GST-Arl15-AL; n=3; parent: 1; read off a plot. (Immunoblotting shows a protein as a band on a membrane.)
As to chain 1 L495P, the ratio to parent is about 1.3.
Same read-out and setting: then chain 1 R496H, with about 1.1.
As for chain 1 D493H, the ratio to parent is about 0.9.
chain 1 R497H: the ratio to parent is about 1.
Still for that read-out and setting: then chain 1 E538K, with about 0.29; and chain 1 A532D, with about 0.2.
The same measure, in the same setting: then chain 1 H541Y, with about 0.37.
Still for that read-out and setting: under chain 1 M447K stands about 1.1.
